Residue numbers refer to the chain shown, from its start.
B1: antibody 48 (antibody, V domains shown)
VH: QVQLQQSGTELVRPGTSVKVSCKASGYAFTNYLIEWVKQRPGQGLEWIGVINPGSGFTKYNEKFKGKATLTADKSSSTVYMHLSSLTSEDSAVYFCARGLYRAMDYWGQGTSVTVSS
VL: DIQMTQSPASQSASLGESVTITCLASQTIATWLAWYQQKPGKSPQLLIYGATTLADGVPSRFSGGGSGTKFSFKISSLQAEDFVSYYCQQLYSTPYTFGGGTKLEIK
notes: mouse IgG, kappa light chain; also called clone #48; purified antibody 48
B2: antibody 50 (antibody, V domains shown)
VH: B1 VH with T9A, T16A, T30S, V79A, H82Q
VL: B1 VL with A30G, G50A, T52A, T53S, S85N, L91I
notes: mouse IgG, kappa light chain; also called clone #50; purified antibody 50

Target: T1, hiR2-FL-S607R-T7 (human, UniProt Q6PJF5 1-856)
T1 sequence: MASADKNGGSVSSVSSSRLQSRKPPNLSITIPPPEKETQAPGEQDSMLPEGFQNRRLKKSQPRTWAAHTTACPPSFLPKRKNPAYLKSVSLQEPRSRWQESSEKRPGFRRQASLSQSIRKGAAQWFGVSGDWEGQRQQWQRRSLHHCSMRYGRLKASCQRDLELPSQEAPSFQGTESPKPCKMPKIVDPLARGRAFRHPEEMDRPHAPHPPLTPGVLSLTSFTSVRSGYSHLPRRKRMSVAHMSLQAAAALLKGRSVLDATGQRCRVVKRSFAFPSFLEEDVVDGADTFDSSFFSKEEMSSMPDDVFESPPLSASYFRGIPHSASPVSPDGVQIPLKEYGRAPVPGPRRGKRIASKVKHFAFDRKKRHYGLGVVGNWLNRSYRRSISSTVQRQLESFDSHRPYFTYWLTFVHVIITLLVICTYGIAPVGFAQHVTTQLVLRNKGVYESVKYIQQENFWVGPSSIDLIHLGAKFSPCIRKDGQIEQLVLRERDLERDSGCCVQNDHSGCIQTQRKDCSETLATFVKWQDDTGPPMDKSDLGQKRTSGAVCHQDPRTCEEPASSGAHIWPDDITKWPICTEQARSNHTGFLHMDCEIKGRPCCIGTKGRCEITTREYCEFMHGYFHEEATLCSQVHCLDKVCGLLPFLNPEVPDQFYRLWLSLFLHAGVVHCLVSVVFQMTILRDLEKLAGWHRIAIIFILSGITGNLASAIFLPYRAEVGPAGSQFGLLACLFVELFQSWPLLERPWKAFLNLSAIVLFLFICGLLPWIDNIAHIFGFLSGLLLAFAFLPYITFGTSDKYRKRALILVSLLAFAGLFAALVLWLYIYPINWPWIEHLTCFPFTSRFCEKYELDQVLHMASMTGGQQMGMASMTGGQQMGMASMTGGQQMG
Assay: FACS, MEF-DKO cells, 3 µg/ml
Method in brief: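 MEF-DKO cells expressing T7-tagged full-length hiR2 point mutants were stained on ice for 1 h with purified antibodies at 3 μg/ml in FACS buffer. Detection used PE-conjugated goat anti-mouse IgG F(ab′)2 (1:100, 1 h on ice), read by flow cytometry; buffer-only wells served as controls.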

Binder	loss of binding vs wild type [%]
B1	≥ 30
B2	≥ 30

From patent US20240287172A1 (SCIRHOM, published 2024)
